The data set in a line: soluble on expression in E. coli; label from the status in PepcDB or PDB records.
For “MSLLNQKIQNPNPDELMIEVDLCYELDPYELKLDEMIEAEPEPEMIEGLPASDALTPADRYLELFEHVQSAKIFPDSKTFPDCAPKMDPLDILIRYRKVRRHRDFDLRKFVENHFWLPEVYSSEYVSDPQNSLKEHIDQLWPVLTREPQDHIPWSSLLALPQSYIVPGGRFSETYYWDSYFTMLGLAESGREDLLKCMADNFAWMIENYGHIPNGNRTYYLSRSQPPVFALMVELFEEDGVRGARRYLDHLKMEYAFWMDGAESLIPNQAYRHVVRMPDGSLLNRYWDDRDTPRDESWLEDVETAKHSGRPPNEVYRDLRAGAASGWDYSSRWLRDTGRLASIRTTQFIPIDLNAFLFKLESAIANISALKGEKETEALFRQKASARRDAVNRYLWDDENGIYRDYDWRREQLALFSAAAIVPLYVGMANHEQADRLANAVRSRLLTPGGILASEYETGEQWDKPNGWAPLQWMAIQGFKMYGDDLLGDEIARSWLKTVNQFYLEQHKLIEKYHIADGVPREGGGGEYPLQDGFGWTNGVVRRLIGLYGEPEGGSHHHHHH”, the “soluble on expression in E. coli” value is “soluble”. Regarding “SQLADAEKINVPFPSSQTVVRLGQIGIDHHNQNYFPLMVGNYILGGGTLVSRLGTEVREKRGLTYGIDSQFVPMLGEGPFIISLSTKNSEARNALHITQDTLIKFIKNGPNQEELASAKQYLTGSFPLSLGSNTNIANLLLRMAFYHLPDNYLDTYVAKINAVTDAEIKQAFQQQVNPEKLLLVTVGQ”, the “soluble on expression in E. coli” value was “not soluble”. The result for “MASHKLLVTPPKALLKPLSIPNQLLLGPGPSNLPPRIMAAGGLQMIGSMSKDMYQIMDEIKEGIQYVFQTRNPLTLVISGSGHCALEAALVNVLEPGDSFLVGANGIWGQRAVDIGERIGARVHPMTKDPGGHYTLQEVEEGLAQHKPVLLFLTHGESSTGVLQPLDGFGELCHRYKCLLLVDSVASLGGTPLYMDRQGIDILYSGSQKALNAPPGTSLISFSDKAKKKMYSRKTKPFSFYLDIKWLANFWGCDDQPRMYHHTIPVISLYSLRESLALIAEQGLENSWRQHREAAAYLHGRLQALGLQLFVKDPALRLPTVTTVAVPAGYDWRDIVSYVIDHFDIEIMGGLGPSTGKVLRIGLLGCNATRENVDRVTEALRAALQHCPKKKL” reads “soluble”; that for “MSGNSGASPQDMVKKLVYLSCTLNQKCGQRTGPHREPEPFLGFSVRDRSGLEGAIASVFQSSFDVLLYPTIYDQAAALLFKLANGHYFQDGNKRTAFHLCLAYLRANNVHVSPPRSDDVITLLQTTVSRSGSQENGIAFVRQKLLDWTVD”, “not soluble”; that for “MAHHHHHHMSGVVIKKPNLKRLLAGQREELASFQPPVHPIPEYLGSPLPYLSNPYHIRGTLMAVEQEPEPNHEADGGKQLMADIMNERARICLEVEKTLALTCRVLDKAAQNDGELTELARESLARLTVMGEDLSNRMITSRE”, “not soluble”.

On to “MNNGYSPTSSNQQNVSVEHDIIMRGRRIIDITGVKQVESFDSEEFLLETVMGFLTIRGQNLQMKNLDVEKGIVSIKGKVNEMLYIDENQGEKTKGFFSKLFKLEHHHHHH”, for which the “soluble on expression in E. coli” value was “not soluble”. In the case of “MAHHHHHHMWRPRRVQGLGSGEDICHLVSAVRRQGIRSLPSGLVVAAEIAYRCCSYSIESFQTDSTEAKKPSRVVGTAPTERQKRPSALAPSSSIPATEKAGIIVEWVPDALGYHLPLGLRERWEPSSKASPTEAGGLKASNDAETHGTEQQELEEVSSVGNPCASSRVGDGGGGSGHRSGHSDGPPFYGPLPNFATSPVFEWERCLWQWRPVKITPAAGTPHHTSLTVTAPISSSGEKRPLRDEMHCSDGGENDLAEGGLGESSQVYHLVPFLLCPTLEVCATQPLMHGSLRKELAAAQNACHHLRRSWPEDAKQDLLGTRRCPTYSEHETRLWSITIPTPVGELALSSPQDTDGDDANKQNTMLDLPTFAMIEGEPPMRVGGRIRACCGHGITSPAPPEAETWEAATAAARNERSTSAGNAAVPYVHVFCSEMSAACSDSLLSQTGIKASELPTPSSCDVSSPTLPLTRRNVVGGGLAELILAVDRYAALIARGDLALSAACWATLCDTKSWWVVQRLRVCPLEMERELVAATEAHKLWQQYAVSRNSTLVGKSSHGICFYDYPFLAKWPLGRQAATKATAPIRAHTRWRV” it was “not soluble”; in that of “MRLIAAGEAQNAQQADEDVVQRNIQANRGTNIVRFTAMNDVAGFKQNSARGDQNEDRADRQMQGRQLQEDISNHTNQHHHNTRHQHTAKERHIFAGGQHIRRAAEEHQRRSAQCHSDYVTHSSRQVGVQNWSEDISQKTGKGECGDNPGRLIRRFVGQEHQTIHTHQRQNQTRRWQHQHRTGSCGNRRKGQRQAQQKIGITQHLMGAKQRCTVM”, “soluble”. Turning to “MGSDKIHHHHHHMRIQFGYVAMSMELANASPSKTMTATQFEKIEDHEAGLRKLERIAKTNLHNCLRLLKHNLAYQISFFRLSSKLVPLVNHPLTEGWKYELAIAEELQAVGEFASEHQMRIDFHPDHFVVLNSEAKEITRRSLQTLLYHYKLLKGMEIDPRHRCVLHVGGKKKGVEAGLEQFIENTASIPKSLLSMIMLENDDKSYTIDDVLYLGEKLAIPVVLDIHHHDVLHRSKSLQETWQRIVATWEDSPLPVKIHLSSPLSGEDDPRHHDYINADRFIAFLHEIGADAVDHLHVMIEAKKKDLALFQLMKDLAEYDEITVVSKSAVEFNP”, the “soluble on expression in E. coli” value is “not soluble”. The result for “MLPRAEQKQQTRRALLDAAHQLMESGRGFGSLSLREVARTAGIVPTGFYRHFEDMDQLGLALVIEVGQTFRETIRLVRHNEFAMGGLIRASVKIFLERVAANRSQFLFLAREQYGGSLKVRQALGALREGISADLTADLAKMPKWQHLNADALSIIADLVVKSVFAMLPELIDPPPASLAPHLTPQAKITQQLRFIFIGARHWRGLGTHD” reads “not soluble”; that for “MFFRVKTTPTKAKPYVKPQNANNLQNNFNPRKIFTEYISKEETDAGIEDGSMFKGVLRINPKNYQECFLDHPKGTNHPDVLVLGQDRNRAMQGDVVAVKIKPKEDWLVNYVEYVKWWAEHKKGDRNSGKTDNNSPNKTEKRCLRNEIQDNGVTSDEVPDSCLITIGAIVHILEKKHFRVAAGKLQLMPNSANPNVLFVATDSRVPRILIPKSDVDKEFFSRPKDFERFLYTAKITDWRAESVYADGRLVKLLGMSGEIDTETERIVYEHQIDHREFSDECLESLPITTAENWKVPDAEFEYRRDFRSDIVFTIDPKTARDLDDALHAKHIDDCDGKGTPGLEIGVHIADVTFFLKEGTELDKWASERGNSTYLSQTVIPMLPRILCEQLCSLNPGVDRLSFSTVFKMSYEAELYDVWFGRSVIRSRVKLAYEHAQDFIENPEKDFTCDELPDISDGNTPFEIKEKTLMLHRIAQVLRQKREDSGALRIELPRLKFALDEDKKPQGVSIYEIKDSNKLVEEFMLLANMEVAKKIAENFPEHALLRNHPPPKEKMIKDVAEQCARIGFPLDGRTSGLLSTSLRKYQGKSRLDMCIRQVISSLTIKPMQQAKYFCTFEMPLSFYHHFALNVDHYTHFTSPIRRYPDVIVHRQLAAALGYNERSERVPEEIQEICTRCNDTKLASKEASDESAMLYFGVFIHQTGPMKCQAVVLGVMDLSFDVLIVEYGVVKRVYVDKMKRDFNKSTEKLTIYWPADPNAESGNREEFSSSIQMCNVVYVILVPYKSIEVSATIVRPSLEQRNILKSTLKDMKETGSTILQ”, “not soluble”. Regarding “MGSDKIHHHHHHEADNYEPPKVDLKDQIPIILIHGSGGNASSLDKMADQLMNEYRSSNEALTMTVNSEGKIKFEGKLTKDAKRPIIKFGFEQNQATPDDWSKWLKIAMEDLKSRYGFTQMDGVGHSNGGLALTYYAEDYAGDKTVPTLRKLVAIGSPFNDLDPNDNGMDLSFKKLPNSTPQMDYFIKNQTEVSPDLEVLAIAGELSEDNPTDGIVPTISSLATRLFMPGSAKAYIEDIQVGEDAVHQTLHETPKSIEKTYWFLEKFKTDETVIQLDYK”, the “soluble on expression in E. coli” value is listed as “not soluble”.

As to “MLADKESLIEALKLALSTEYNVKRNFTQSVEIILTFKGIDMKKGDLKLREIVPLPKQPSKAKRVLVVPSSEQLEYAKKASPKVVITREELQKLQGQKRPVKKLARQNEWFLINQESMALAGRILGPALGPRGKFPTPLPNTADISEYINRFKRSVLVKTKDQPQVQVFIGTEDMKPEDLAENAIAVLNAIENKAKVETNLRNIYVKTTMGKAVKVKR”, the “soluble on expression in E. coli” value was “soluble”. The result for “MSLIITDDHMHLYNHLKLKALEQFRDAGGTHVFLVNLLCHHYGIRPTSGKDFREVFERHLSLVEKANKIVKAYAVLGVHPAEITVIGDRIGHEKAAEMMKEALEIAGKYVEEGKAVALKSGRPHYPVSRHVWQLSNDVLRHAFEVAKDVGCAIQLHTESYTKEGMLEIAKMADEVGLKREKVVKHFSPPLIKEFEEIGIFPSVLAGNNNVLKAAEQGNRFTVETDYIDDRKRPGAVLGPKTVPRKVKELIELGYEDIAYKICVENVEKVYGVELEEEGHHHHHH” reads “soluble”. In the case of “MGSDKIHHHHHHMIELDNIKICPLAGIDDAIIIQSLNKASLTTSTSAIGPAVAEMVTRHGAVLLRGFAPEGTSAMAALFASLQWKPLQYTYRSTPRTSVSEGIYTATEFPASEEIMLHSENAFQADWPTRIGFHCAVPARAGGETPIGSLEKITARIDTGLFDEFRRRGVSYVRNYSDYVDLPWQVVFQSSDRGDVEEYCKNHGIGFEWRNSGLRTWQACQGTATHPERGNEVWFNQAHMFHYTALGPEMASNLLSIFGEEELPRNAYYGDGGVIPKDAVEHIREAFSAERASFGWEKDDILLLDNMRYCHGRNPFEGPRQVLVSMGRGYASVVDSSH” it was “not soluble”; in that of “MGSDKIHHHHHHMIASPEPEYLTPEEYLQLEEASPIKHEYINGYAYAMAGATDAHVTVAGNLFVLLRNHVRGSGCRVYIADMKARIESLNRYYYPDVMVTCDQRDQETPNHKRFPCLIVEVLSNSTEAFDRGDKFVDYQEIETLKEYVLINTKRQRVECFKRGDHGLWILQSYTEQDKIFRLNSVDFEGAIAELYEDVIFEQTTL”, “not soluble”.

In the case of “MGSDKIHHHHHHMARKPIDRPVHIPPLQALRALEAAARHRSFSRAAEELALTHSAISHHMRALEDKLGTKLFQRTGSQMAPTSAGARLAEQIRAALDDIESAVREASSSTTTPVVRLQVSVMADLANAWLIRRLPSLHAQVPSLDLHLRLHAEITPPDPYSVDVGIWHQRIDLPGFECHNLIEDHVIAVASPALLARYPGFTPADVPRMPMLRFALRPWRDWLEAAGLPDAEPERGPIFQDAGLMLQSAVAGLGVATARAQLAHDYLESGQLVQVGSTRIPSSLHYWVTWREGNPREKAIQQFHAWLQEQVRRETPTAEPTTTDDAMK”, the “soluble on expression in E. coli” value is “not soluble”. The result for “MNSQNPDDHEDTTVVGFEVPVSPVSSYNNVYSSTEDETRDPPAVPPHLQHSLLGNQGSMELAYAPQNVVLNHLYIENRDAPRSVVALGFSHRFRTKFVTVVIYKPVQRRGSANV” reads “not soluble”; that for “MTETKDKQLSRIVLKGFKSIAKCDLEISRVNILIGANGAGKSNFIGFFRMVGQLVEENLQVFVSRQGSPDALLHFGRKTTEHLEFQLYFGNNGYFATLEPTQDNRLMFARESFWWNMSGEHEIGRGHFETKVLTSTRTGIDEYVLSAMQQWRVYHFHDTSESAYIKQPHGINDNAYLRPDARNLASFLYLLRNSYPASYQRIVKTIRLVAPFFGDFYLRPAPQNKEVIELEWFERGQDIPFKAYLLSDGTLRFMCLATVFLQPEDLQPETILVDEPELGLHPYAITVLASLMRTASKQVIVSTQSIELLNQFEAKDVIVVDRSEGSSYLRRLNQGDRIHFTGYSLLEHHHHHH”, “soluble”.
